Source: US20220387487A1, “COMPOSITIONS AND METHODS FOR TREATMENT OF CANCER” (Aleta Biotherapeutics Inc., priority 2019, published 2022)

B1: #440: fusion protein comprising an anti-CLEC12A VHH, an anti-CD33 scFv, and a CD19 ECD; SEQ ID NO:321 (protein)
chain: MEFGLSWVFLVALFRGVQCQVQLVQSGAEVKKPGESVKVSCKASGYTFTNYGMNWVKQAPGQGLEWMGWINTYTGEPTYADKFQGRVTMTTDTSTSTAYMEIRNLGGDDTAVYYCARWSWSDGYYVYFDYWGQGTSVTVSSGGGGSGGGGSGGGGSDIVMTQSPDSLTVSLGERTTINCKSSQSVLDSSTNKNSLAWYQQKPGQPPKLLLSWASTRESGIPDRFSGSGSGTDFTLTIDSPQPEDSATYYCQQSAHFPITFGQGTRLEIKGGGGSGGGGSGGGGSGGGGSQVQLQESGGGLVQAGGSLRLSCVASGSIRSINVMGWYRQAPGKQRELVAACASDGNTYYADSVKGRFTISRDNAEKTVYLQMNNLKPDDTAVYYCDANSRGNYYSGQGTQVTVSSTSGPGGQGAGGGGSGGGGSGGGGSGGGGSPEEPLVVKVEEGDTAALWCLKGTSDGPTQQLTWSRESPLKPFLKYSLGVPGLGVHVRPDAISVVIRNVSQQMGGFYLCQPGPPSEKAWQPGWTVNVEGSGELFRWNVSDLGGLGCGLKNRSSEGPSSPSGKLMSPKLYVWAKDRPEIWEGEPPCLPPRDSLNQSLSRDLTVAPGSTLWLSCGVPPDSVSRGPLSWTHVHPKGPKSLLSLELKDDRPARDMWVMGTSLMLPRATAQDAGKWYCHRGNLTMSFHLEITARPSRHHHHHH
B2: #330: fusion protein comprised of a CD19 variant and an anti-CLL-1 VHH (2H3); SEQ ID NO:305 (protein)
chain: MEFGLSWVFLVALFRGVQCQVQLQESGGGLVQAGGSLRLSCVASGSIRSINVMGWYRQAPGKQRELVAACASDGNTYYADSVKGRFTISRDNAEKTVYLQMNNLKPDDTAVYYCDANSRGNYYSGQGTQVTVSSTSGPGGQGAGGGGSGGGGSGGGGSGGGGSPEEPLVVKVEEGDTAALWCLKGTSDGPTQQLTWSRESPLKPFLKYSLGVPGLGVHVRPDAISVVIRNVSQQMGGFYLCQPGPPSEKAWQPGWTVNVEGSGELFRWNVSDLGGLGCGLKNRSSEGPSSPSGKLMSPKLYVWAKDRPEIWEGEPPCLPPRDSLNQSLSRDLTVAPGSTLWLSCGVPPDSVSRGPLSWTHVHPKGPKSLLSLELKDDRPARDMWVMGTSLMLPRATAQDAGKWYCHRGNLTMSFHLEITARPSRHHHHHH

Key:
U937 cells = test: CAR-CD19 T cell cytotoxicity bridged by purified fusion protein, luciferase U937 cells; type: cell-based; conditions: FIG. 21B
Method: Several fusion proteins were purified and evaluated for their ability to bridge killing of CLL-1 expressing cells by CAR-T cells that target CD19. Luciferase was introduced to U937 cells and […] by lentiviral transduction. On day 1 U937 cells were seeded at 1×10^4 per well of a round-bottom 96 well plate (Thermo Fisher) or 293T-CLL-1 cells were seeded in a flat bottom plate in cell culture media (RPMI 1640, 10% FBS). On day 2, the fusion proteins #357, #330 and #321 were added at 0.2 μg/ml (20 ng/well) with serial 3 fold dilutions where indicated, then left to incubate at 37° C. for 1 hour using the cell culture incubator. […]
On day 3, the plate was spun at 550 RCF for 5 minutes and rinsed with PBS then spun again to remove the PBS. […] The injector added 100 μl of Luciferase assay reagent per well, then the well was read immediately. The plate was then advanced to the next well for a repeat of the inject-then-read process. […]
The % cell death (aka cytotoxicity) was calculated as follows:
% killing=[1−luc reading (experimental wells)/luc reading (tumor cells without CAR T cells)]×100. […]
To test cytoxicity, luciferase labeled Molm14 or U937 cells were targeted for cytotoxic killing using a CAR19 T cell preparation and the purified proteins #330, #410 and #440 added in a dose titration. […] The plates were read in a luminometer with an injector (Glomax Multi Detection System, Promega). […]

Molm14 cells = test: CAR-CD19 T cell cytotoxicity bridged by purified fusion protein, luciferase Molm14 cells; type: cell-based; conditions: FIG. 21A
Method: To test cytoxicity, luciferase labeled Molm14 or U937 cells were targeted for cytotoxic killing using a CAR19 T cell preparation and the purified proteins #330, #410 and #440 added in a dose titration. 1×10^4 target cells were added to each well (96 clear round bottom plate) in RPMI medium. The protein titration was started at 180 ng/ml with 3-fold serial titration into corresponding wells (25 μl per well). CAR-CD19 T cells were added at various E:T ratios to the target cells. After 48 hours the plate was centrifuged (450 RCF for 5 minutes) and the cells were washed 1× with PBS then centrifuged a second time. 20 μl lysis buffer was added into each well. The cell lysate was transferred to a 96 opaque white plate. The plates were read in a luminometer with an injector (Glomax Multi Detection System, Promega). The percent killing was calculated based upon the average loss of luminescence of the experimental vs the control (target cell only or target cell plus fusion protein only).

CD33 = CD33 (Homo sapiens, UniProt P20138); test: ELISA of fusion proteins, FMC63 coat, biotinylated CD33 detection; type: binding
CD33, sequence (P20138 18-364): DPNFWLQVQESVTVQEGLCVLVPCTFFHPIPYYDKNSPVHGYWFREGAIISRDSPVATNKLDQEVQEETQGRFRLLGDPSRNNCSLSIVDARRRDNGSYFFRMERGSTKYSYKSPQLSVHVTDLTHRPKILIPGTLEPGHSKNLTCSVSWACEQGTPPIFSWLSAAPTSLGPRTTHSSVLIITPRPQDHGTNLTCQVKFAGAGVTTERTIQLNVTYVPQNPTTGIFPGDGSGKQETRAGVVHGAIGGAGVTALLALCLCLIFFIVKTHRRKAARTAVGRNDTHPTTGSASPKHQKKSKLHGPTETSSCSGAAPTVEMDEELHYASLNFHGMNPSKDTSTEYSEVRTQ
Method: ELISAs for binding to CD19, CLEC12A and CD33 were run using purified fusion proteins #330, #410 and #440. A 96 well plate was coated with 1.0 μg/ml FMC63 (Novus) in 0.1 M carbonate, pH 9.5 overnight at 4° C. The plate was blocked with 0.3% non-fat milk in TBS for 1 hour at room temperature. After washing in TBST (0.1 M Tris, 0.5 M NaCl, 0.05% Tween20) 3 times, the fusion protein supernatant was titrated using 3-fold dilutions in 1% BSA in TBS and incubated 1 hour at room temperature. For detection by anti-His, after washing 3 times in TBST, HRP-anti-His (BioLegend) was added at 1:2000. The plate was incubated at room temperature in the dark for 1 hour. For detection of binding to CLEC12A, biotinylated CLEC12A was added at 0.5 μg/ml and incubated for 1 hour. This was followed by adding HRP-SA (Pierce) at 1:2000 and incubated at room temperature in the dark for 1 hour. For testing binding to CD33, biotinylated CD33 was added at 0.5 μg/ml and incubated for 1 hour. This was followed by adding HRP-SA (Pierce) at 1:2000 and incubated at room temperature in the dark for 1 hour. Then, 1-Step Ultra TMB-ELISA (Thermo Fisher) solution, was added and the plate read at […]. Curves were fit using a four-parameter logistic (4 PL) regression to calculate the EC50.

[1] = ELISA, FMC63 coat, biotinylated CD33

Molecule	cytotoxicity on U937 cells (U937 cells)	cytotoxicity on Molm14 cells (Molm14 cells)	CD33 binding EC50 (CD33; [1]) [ng/mL]	ELISA binding to CD33 (CD33; Table 10)	CD33 binding EC50 pM (CD33; [1])	CD33 binding EC50 ng/ml (CD33; [1])
B1	essentially the same activity	about equipotent	2.1	binds equally well to both components	–	–
B2	highest cytotoxicity	less potent	–	–	∞	∞
